US20250381289A1 (Genmab, published 2025)
Each block holds one binder with its values, some of them ahead of it.

Legend:
[1] = target: T1, cMET on EGFR and cMET co-expressed tumor cell lines (UniProt P08581 25-1390, limits assumed); experiment: flow cytometry on CAL-27 cells (co-express EGFR and cMET), PE anti-human Fc; signal of the whole bispecific, not resolved by arm
T1 construct: whole, on cells

[2] = target: T2, EGFR on EGFR and cMET co-expressed tumor cell lines (UniProt P00533 25-1210, limits assumed); experiment: as above
T2 construct: whole, on cells

Human EGFR = target: T3, Human EGFR (human, UniProt P00533); experiment: ELISA, plate coated with 100 ng/well human EGFR recombinant protein, HRP anti-human Fc, OD450
T3 construct: recombinant protein coated on the ELISA plate; also called human EGFR recombinant protein

Human cMET = target: T4, Human cMET; experiment: ELISA, plate coated with 100 ng/well human cMET recombinant protein, HRP anti-human Fc, OD450
T4 construct: also called human cMET recombinant protein
T4 chain: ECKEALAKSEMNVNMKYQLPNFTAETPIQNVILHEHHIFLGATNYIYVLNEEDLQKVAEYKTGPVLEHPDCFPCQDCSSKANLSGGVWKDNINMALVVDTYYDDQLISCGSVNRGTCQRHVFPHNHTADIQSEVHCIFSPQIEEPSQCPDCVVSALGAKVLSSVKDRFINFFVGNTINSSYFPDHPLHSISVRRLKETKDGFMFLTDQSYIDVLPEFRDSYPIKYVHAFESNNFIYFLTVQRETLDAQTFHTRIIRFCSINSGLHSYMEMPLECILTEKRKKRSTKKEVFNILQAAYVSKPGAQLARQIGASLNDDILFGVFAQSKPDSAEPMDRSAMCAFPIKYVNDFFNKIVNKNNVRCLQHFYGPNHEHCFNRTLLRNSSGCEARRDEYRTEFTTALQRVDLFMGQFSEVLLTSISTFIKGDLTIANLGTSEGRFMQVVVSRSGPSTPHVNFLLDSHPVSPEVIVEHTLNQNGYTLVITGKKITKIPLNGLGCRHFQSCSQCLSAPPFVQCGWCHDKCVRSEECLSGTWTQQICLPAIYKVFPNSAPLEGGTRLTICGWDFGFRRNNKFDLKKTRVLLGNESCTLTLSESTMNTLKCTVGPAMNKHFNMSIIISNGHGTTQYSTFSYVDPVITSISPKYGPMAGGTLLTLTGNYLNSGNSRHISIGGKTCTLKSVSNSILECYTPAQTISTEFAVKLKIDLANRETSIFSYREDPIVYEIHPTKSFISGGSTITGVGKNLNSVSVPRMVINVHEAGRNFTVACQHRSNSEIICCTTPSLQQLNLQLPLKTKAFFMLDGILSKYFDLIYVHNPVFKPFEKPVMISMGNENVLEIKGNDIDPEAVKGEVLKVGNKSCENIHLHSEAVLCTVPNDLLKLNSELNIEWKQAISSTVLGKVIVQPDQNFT

[3] = target: T1, cMET on EGFR and cMET co-expressed …; experiment: flow cytometry on EBC-1 cells (co-express EGFR and cMET), PE anti-human Fc; signal of the whole bispecific, not resolved by arm
[4] = target: T2, EGFR on EGFR and cMET co-expressed …; experiment: as above
[5] = target: T1, cMET on EGFR and cMET co-expressed …; experiment: flow cytometry on SNU-5 cells (co-express EGFR and cMET), PE anti-human Fc; signal of the whole bispecific, not resolved by arm
[6] = target: T2, EGFR on EGFR and cMET co-expressed …; experiment: as above
[7] = target: T1, cMET on EGFR and cMET co-expressed …; experiment: flow cytometry, NCI-H1975 cells
[8] = target: T1, cMET on EGFR and cMET co-expressed …; experiment: flow cytometry, NCI-H441 cells
[9] = target: T1, cMET on EGFR and cMET co-expressed …; experiment: flow cytometry, MKN-45 cells
[10] = target: T1, cMET on EGFR and cMET co-expressed …; experiment: flow cytometry, EBC-1 cells (co-express EGFR and cMET; both arms contribute)
[11] = target: T2, EGFR on EGFR and cMET co-expressed …; experiment: as above
human cMET-Fc = target: T5, human cMET-Fc (human, UniProt P08581 25-932); experiment: blocking ELISA: coated human cMET-Fc, antibody titrated, then human HGF-His (blocked ligand), anti-His-HRP
T5 construct: not shown: Fc part, not described

[12] = target: T1, cMET on EGFR and cMET co-expressed …; experiment: flow cytometry, MKN-45 cells; remark: listed apart in the source
[13] = target: T1, cMET on EGFR and cMET co-expressed …; experiment: flow cytometry, MKN-45 cells; remark: listed apart in the source

B1: AZD9592 (bispecific antibody, human IgG1, kappa, lambda)
anti-EGFR heavy chain: QVQLVQSGAEVKKPGSSVKVSCKASGGTFSDNDFSWVRQAPGQGLEWMGAIVAVFRTETYAQKFQDRVKITADISTRTTYMELSSLRSEDTAVYYCARRLMSAISGPGAPLLMWGQGTLVTVSSASTKGPSVCPLAPSSKSTSGGTAALGCLVKDYFPEPVTVSWNSGALTSGVHTFPAVLQSSGLYSLSSVVTVPSSSLGTQTYICNVNHKPSNTKVDKRVEPKSVDKTHTCPPCPAPEFEGGPSVFLFPPKPKDTLMISRTPEVTCVVVDVSHEDPEVKFNWYVDGVEVHNAKTKPREEQYNSTYRVVSVLTVLHQDWLNGKEYKCKVSNKALPASIEKTISKAKGQPREPQVYTLPPCREEMTKNQVSLWCLVKGFYPSDIAVEWESNGQPENNYKTTPPVLDSDGSFFLYSKLTVDKSRWQQGNVFSCSVMHEALHNHYTQKSLSLSPGK
anti-EGFR light chain: QSALTQPRSVSGSPGQSVTISCTGTSSDVGGYNYVSWYQQHPGKAPKLMIYDVSKRPSGVPDRFSGSKSGNTASLTISGLQAEDEADYYCSSYTSSDTLEIFGGGTKLTVLGQPKAAPSVTLFPPCSEELQANKATLVCLISDFYPGAVTVAWKADSSPVKAGVETTTPSKQSNNKYAASSYLSLTPEQWKSHRSYSCQVTHEGSTVEKTVAPTEVS
anti-cMET heavy chain: QVQLVQSGAEVKKPGASVKVSCKASGYTFTDYYIHWVRQATGQGLEWMGWMNPNSGNTGYAQKFQGRVTMTRDTSISTAYMELSSLRSEDTAVYYCARGQGYTHSWGQGTMVTVSSASTKGPSVFPLAPSSKSTSGGTAALGCLVKDYFPEPVTVSWNSGALTSGVHTFPAVLQSSGLYSLSSVVTVPSSSLGTQTYICNVNHKPSNTKVDKRVEPKSCDKTHTCPPCPAPEFEGGPSVFLFPPKPKDTLMISRTPEVTCVVVDVSHEDPEVKFNWYVDGVEVHNAKTKPREEQYNSTYRVVSVLTVLHQDWLNGKEYKCKVSNKALPASIEKTISKAKGQPREPQVCTLPPSREEMTKNQVSLSCAVKGFYPSDIAVEWESNGQPENNYKTTPPVLDSDGSFFLVSKLTVDKSRWQQGNVFSCSVMHEALHNHYTQKSLSLSPGK
anti-cMET light chain: DIQMTQSPSTLSASVGDRVTITCRASEGIYHWLAWYQQKPGKAPKLLIYKASSLASGVPSRFSGSGSGTEFTLTISSLQPDDFATYYCQQYSNYPPTFGGGTKLEIKRTVAAPSVFIFPPSDEQLKSGTASVVCLLNNFYPREAKVQWKVDNALQSGNSQESVTEQDSKDSTYSLSSTLTLSKADYEKHKVYACEVTHQGLSSPVTKSFNRGEC
EC50 (read off the curve) [1]: ~10 nM | EC50 (read off the curve) [2]: ~10 nM | EC50 (read off the curve) (Human EGFR): ~1 nM | EC50 (read off the curve) (Human cMET): ~0.07 nM | EC50 (read off the curve) [3]: ~2 nM | EC50 (read off the curve) [4]: ~2 nM | EC50 (read off the curve) [5]: ~3 nM | EC50 (read off the curve) [6]: ~3 nM

B3: Bsab 44 (bispecific antibody, human IgG1, kappa, L234A L235A)
anti EGFR knob chain (scFab): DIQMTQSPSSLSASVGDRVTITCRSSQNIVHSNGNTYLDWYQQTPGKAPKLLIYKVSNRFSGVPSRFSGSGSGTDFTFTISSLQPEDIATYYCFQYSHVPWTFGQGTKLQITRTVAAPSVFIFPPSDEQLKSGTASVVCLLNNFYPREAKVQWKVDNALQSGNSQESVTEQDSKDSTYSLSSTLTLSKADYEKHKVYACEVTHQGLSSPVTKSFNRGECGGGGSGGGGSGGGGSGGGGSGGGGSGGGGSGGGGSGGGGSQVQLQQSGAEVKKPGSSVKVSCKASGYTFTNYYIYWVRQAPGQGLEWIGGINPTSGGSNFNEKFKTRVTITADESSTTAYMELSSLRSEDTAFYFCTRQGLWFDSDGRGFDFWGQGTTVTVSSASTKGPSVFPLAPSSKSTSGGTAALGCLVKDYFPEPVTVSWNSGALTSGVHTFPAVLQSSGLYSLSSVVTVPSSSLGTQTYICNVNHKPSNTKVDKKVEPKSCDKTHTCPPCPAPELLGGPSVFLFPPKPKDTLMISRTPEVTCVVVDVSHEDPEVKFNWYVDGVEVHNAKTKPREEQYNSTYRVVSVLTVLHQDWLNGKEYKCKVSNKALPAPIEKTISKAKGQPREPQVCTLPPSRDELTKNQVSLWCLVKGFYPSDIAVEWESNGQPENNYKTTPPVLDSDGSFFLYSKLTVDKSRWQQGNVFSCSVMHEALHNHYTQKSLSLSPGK
anti cMET hole chain (scFab): DIQMTQSPSSLSASVGDRVTITCKSSQSLLYTSSQKNYLAWYQQKPGKAPKLLIYWASTRESGVPSRFSGSGSGTDFTLTISSLQPEDFATYYCQQYYAYPWTFGQGTKVEIKRTVAAPSVFIFPPSDEQLKSGTASVVCLLNNFYPREAKVQWKVDNALQSGNSQESVTEQDSKDSTYSLSSTLTLSKADYEKHKVYACEVTHQGLSSPVTKSFNRGECGGGGSGGGGSGGGGSGGGGSGGGGSGGGGSGGGGSGGGGSEVQLVESGGGLVQPGGSLRLSCAASGYTFTSYWLHWVRQAPGKCLEWVGMIDPSNSDTRFNPNFKDRFTISADTSKNTAYLQMNSLRAEDTAVYYCATYRSYVTPLDYWGQGTLVTVSSASTKGPSVFPLAPSSKSTSGGTAALGCLVKDYFPEPVTVSWNSGALTSGVHTFPAVLQSSGLYSLSSVVTVPSSSLGTQTYICNVNHKPSNTKVDKKVEPKSCDKTHTCPPCPAPEAAGGPSVFLFPPKPKDTLMISRTPEVTCVVVDVSHEDPEVKFNWYVDGVEVHNAKTKPREEQYNSTYRVVSVLTVLHQDWLNGKEYKCKVSNKALPAPIEKTISKAKGQPREPQVYTLPPCREEMTKNQVSLSCAVKGFYPSDIAVEWESNGQPENNYKTTPPVLDSDGSFFLVSKLTVDKSRWQQGNVFSCSVMHEALHNHYTQKSLSLSPGK
EC50 (read off the curve) [10]: ~2 nM | EC50 (read off the curve) [11]: ~2 nM

Second part, the binder after the results:

EC50 (read off the curve) [7]: ~0.4 nM | EC50 (read off the curve) [8]: ~0.7 nM | EC50 (read off the curve) [9]: ~1 nM
B2: Onartuzumab (antibody, V domains shown)
VH: EVQLVESGGGLVQPGGSLRLSCAASGYTFTSYWLHWVRQAPGKGLEWVGMIDPSNSDTRFNPNFKDRFTISADTSKNTAYLQMNSLRAEDTAVYYCATYRSYVTPLDYWGQGTLVTVSS
VL: DIQMTQSPSSLSASVGDRVTITCKSSQSLLYTSSQKNYLAWYQQKPGKAPKLLIYWASTRESGVPSRFSGSGSGTDFTLTISSLQPEDFATYYCQQYYAYPWTFGQGTKVEIK

IC50 (read off the curve) (human cMET-Fc): ~1 nM | EC50 (read off the curve) [12]: ~0.8 nM | EC50 (read off the curve) [13]: ~1 nM
B4: Telisotuzumab (antibody, V domains shown)
VH: QVQLVQSGAEVKKPGASVKVSCKASGYIFTAYTMHWVRQAPGQGLEWMGWIKPNNGLANYAQKFQGRVTMTRDTSISTAYMELSRLRSDDTAVYYCARSEITTEFDYWGQGTLVTVSS
VL: DIVMTQSPDSLAVSLGERATINCKSSESVDSYANSFLHWYQQKPGQPPKLLIYRASTRESGVPDRFSGSGSGTDFTLTISSLQAEDVAVYYCQQSKEDPLTFGGGTKVEIK
